IntAct's records for PubMed 31515488

B1: Macrophage scavenger receptor types I and II (Homo sapiens), P21757 (parent)
chain: MEQWDHFHNQQEDTDSCSESVKFDARSMTALLPPNPKNSPSLQEKLKSFKAALIALYLLVFAVLIPLIGIVAAQLLKWETKNCSVSSTNANDITQSLTGKGNDSEEEMRFQEVFMEHMSNMEKRIQHILDMEANLMDTEHFQNFSMTTDQRFNDILLQLSTLFSSVQGHGNAIDEISKSLISLNTTLLDLQLNIENLNGKIQENTFKQQEEISKLEERVYNVSAEIMAMKEEQVHLEQEIKGEVKVLNNITNDLRLKDWEHSQTLRNITLIQGPPGPPGEKGDRGPTGESGPRGFPGPIGPPGLKGDRGAIGFPGSRGLPGYAGRPGNSGPKGQKGEKGSGNTLTPFTKVRLVGGSGPHEGRVEILHSGQWGTICDDRWEVRVGQVVCRSLGYPGVQAVHKAAHFGQGTGPIWLNEVFCFGRESSIEECKIRQWGTRACSHSEDAGVTCTL
B2: Homeobox protein VENTX (Homo sapiens), O95231 (parent)
chain: MRLSSSPPRGPQQLSSFGSVDWLSQSSCSGPTHTPRPADFSLGSLPGPGQTSGAREPPQAVSIKEAAGSSNLPAPERTMAGLSKEPNTLRAPRVRTAFTMEQVRTLEGVFQHHQYLSPLERKRLAREMQLSEVQIKTWFQNRRMKHKRQMQDPQLHSPFSGSLHAPPAFYSTSSGLANGLQLLCPWAPLSGPQALMLPPGSFWGLCQVAQEALASAGASCCGQPLASHPPTPGRPSLGPALSTGPRGLCAMPQTGDAF
partner: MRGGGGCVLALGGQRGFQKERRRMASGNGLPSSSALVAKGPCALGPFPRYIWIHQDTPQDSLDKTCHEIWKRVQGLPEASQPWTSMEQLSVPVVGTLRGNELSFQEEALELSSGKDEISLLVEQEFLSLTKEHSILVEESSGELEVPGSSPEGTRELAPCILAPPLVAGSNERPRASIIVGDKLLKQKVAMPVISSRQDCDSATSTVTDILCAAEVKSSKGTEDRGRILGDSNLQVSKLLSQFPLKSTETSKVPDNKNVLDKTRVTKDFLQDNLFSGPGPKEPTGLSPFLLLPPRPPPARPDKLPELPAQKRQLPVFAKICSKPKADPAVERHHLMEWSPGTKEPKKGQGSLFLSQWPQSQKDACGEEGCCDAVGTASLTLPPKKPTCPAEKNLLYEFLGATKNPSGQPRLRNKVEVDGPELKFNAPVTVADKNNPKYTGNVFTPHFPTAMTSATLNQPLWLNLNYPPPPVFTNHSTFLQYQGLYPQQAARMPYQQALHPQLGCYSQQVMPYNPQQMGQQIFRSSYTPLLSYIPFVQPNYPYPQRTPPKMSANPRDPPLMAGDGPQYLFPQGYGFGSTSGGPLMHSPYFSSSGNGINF
B3: Centriolar satellite-associated tubulin polyglutamylase complex regulator 1 (Homo sapiens), Q9H6J7 (parent)
chain: MLSPERLALPDYEYLAQRHVLTYMEDAVCQLLENREDISQYGIARFFTEYFNSVCQGTHILFREFSFVQATPHNRVSFLRAFWRCFRTVGKNGDLLTMKEYHCLLQLLCPDFPLELTQKAARIVLMDDAMDCLMSFSDFLFAFQIQFYYSEFLDSVAAIYEDLLSGKNPNTVIVPTSSSGQHRQRPALGGAGTLEGVEASLFYQCLENLCDRHKYSCPPPALVKEALSNVQRLTFYGFLMALSKHRGINQALGALPDKGDLMHDPAMDEELERLLAQVPGLVNSVTASPEASCLPSRTPPRVGSPWRPLHHSRKVDGESDGSTEETDESET
partner: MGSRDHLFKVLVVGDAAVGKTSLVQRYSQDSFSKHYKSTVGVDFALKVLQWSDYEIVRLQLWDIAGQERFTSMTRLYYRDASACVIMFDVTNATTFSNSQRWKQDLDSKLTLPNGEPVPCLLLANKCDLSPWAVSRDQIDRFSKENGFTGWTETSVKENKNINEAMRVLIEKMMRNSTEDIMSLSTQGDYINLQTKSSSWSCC
B4: "N-acyl-aromatic-L-amino acid amidohydrolase (carboxylate-forming)" (Homo sapiens), Q96HD9 (parent)
chain: MCSLPVPREPLRRVAVTGGTHGNEMSGVYLARHWLHAPAELQRASFSAVPVLANPAATSGCRRYVDHDLNRTFTSSFLNSRPTPDDPYEVTRARELNQLLGPKASGQAFDFVLDLHNTTANMGTCLIAKSSHEVFAMHLCRHLQLQYPELSCQVFLYQRSGEESYNLDSVAKNGLGLELGPQPQGVLRADIFSRMRTLVATVLDFIELFNQGTAFPAFEMEAYRPVGVVDFPRTEAGHLAGTVHPQLQDRDFQPLQPGAPIFQMFSGEDLLYEGESTVYPVFINEAAYYEKGVAFVQTEKFTFTVPAMPALTPAPSPAS
partner: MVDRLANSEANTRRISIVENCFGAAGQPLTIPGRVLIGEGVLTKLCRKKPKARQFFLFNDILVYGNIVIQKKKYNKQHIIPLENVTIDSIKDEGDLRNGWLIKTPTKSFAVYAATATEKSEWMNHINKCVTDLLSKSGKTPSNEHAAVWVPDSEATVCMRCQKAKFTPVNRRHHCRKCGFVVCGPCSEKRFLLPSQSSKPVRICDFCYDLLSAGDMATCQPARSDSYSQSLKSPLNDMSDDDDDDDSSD
B5: Ropporin-1A (Homo sapiens), Q9HAT0 (parent)
chain: MAQTDKPTCIPPELPKMLKEFAKAAIRVQPQDLIQWAADYFEALSRGETPPVRERSERVALCNRAELTPELLKILHSQVAGRLIIRAEELAQMWKVVNLPTDLFNSVMNVGRFTEEIEWLKFLALACSALGVTITKTLKIVCEVLSCDHNGGSPRIPFSTFQFLYTYIAKVDGEISASHVSRMLNYMEQEVIGPDGIITVNDFTQNPRVQLE
partner: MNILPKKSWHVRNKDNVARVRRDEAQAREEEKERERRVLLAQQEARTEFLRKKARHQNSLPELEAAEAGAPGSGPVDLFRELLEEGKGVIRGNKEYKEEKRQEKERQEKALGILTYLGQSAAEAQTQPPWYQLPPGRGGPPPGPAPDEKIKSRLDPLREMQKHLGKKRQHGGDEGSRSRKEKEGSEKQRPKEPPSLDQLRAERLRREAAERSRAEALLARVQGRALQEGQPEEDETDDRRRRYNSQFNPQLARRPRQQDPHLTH
B6: Serpin I2 (Homo sapiens), O75830 (parent)
chain: MDTIFLWSLLLLFFGSQASRCSAQKNTEFAVDLYQEVSLSHKDNIIFSPLGITLVLEMVQLGAKGKAQQQIRQTLKQQETSAGEEFFVLKSFFSAISEKKQEFTFNLANALYLQEGFTVKEQYLHGNKEFFQSAIKLVDFQDAKACAEMISTWVERKTDGKIKDMFSGEEFGPLTRLVLVNAIYFKGDWKQKFRKEDTQLINFTKKNGSTVKIPMMKALLRTKYGYFSESSLNYQVLELSYKGDEFSLIIILPAEGMDIEEVEKLITAQQILKWLSEMQEEEVEISLPRFKVEQKVDFKDVLYSLNITEIFSGGCDLSGITDSSEVYVSQVTQKVFFEINEDGSEAATSTGIHIPVIMSLAQSQFIANHPFLFIMKHNPTESILFMGRVTNPDTQEIKGRDLDSL

Variants of: B1
Settings: with sc22a_human SEC22A

Variant | effect of a mutation on the interaction
V113A | with no effect
P346L | with no effect

Variants of: B1
Settings: with lerl1_human LEPROTL1, O95214
Chain of lerl1_human LEPROTL1, O95214 (O95214 whole entry): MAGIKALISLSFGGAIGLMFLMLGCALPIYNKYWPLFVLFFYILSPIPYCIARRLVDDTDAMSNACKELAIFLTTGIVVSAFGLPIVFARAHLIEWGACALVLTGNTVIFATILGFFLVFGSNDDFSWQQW

Variant | effect of a mutation on the interaction
P286T | with no effect

Variants of: B2
Settings: with ca094_human C1orf94, Q6P1W5

Variant | effect of a mutation on the interaction
A226E | with no effect
L42P | with no effect
M251V | with no effect

Variants of: B3
Settings: with rab7l_human RAB29, O14966

Variant | effect of a mutation on the interaction
S177L | with no effect

Variants of: B4
Settings: with pkhf2_human PLEKHF2, Q9H8W4

Variant | effect of a mutation on the interaction
R8Q | disrupting interaction strength

Variants of: B5
Settings: with leng1_human LENG1, Q96BZ8

Variant | effect of a mutation on the interaction
C62W | with no effect

Variants of: B6
Settings: with ubql1_human UBQLN1, Q9UMX0
Chain of ubql1_human UBQLN1, Q9UMX0 (Q9UMX0 whole entry): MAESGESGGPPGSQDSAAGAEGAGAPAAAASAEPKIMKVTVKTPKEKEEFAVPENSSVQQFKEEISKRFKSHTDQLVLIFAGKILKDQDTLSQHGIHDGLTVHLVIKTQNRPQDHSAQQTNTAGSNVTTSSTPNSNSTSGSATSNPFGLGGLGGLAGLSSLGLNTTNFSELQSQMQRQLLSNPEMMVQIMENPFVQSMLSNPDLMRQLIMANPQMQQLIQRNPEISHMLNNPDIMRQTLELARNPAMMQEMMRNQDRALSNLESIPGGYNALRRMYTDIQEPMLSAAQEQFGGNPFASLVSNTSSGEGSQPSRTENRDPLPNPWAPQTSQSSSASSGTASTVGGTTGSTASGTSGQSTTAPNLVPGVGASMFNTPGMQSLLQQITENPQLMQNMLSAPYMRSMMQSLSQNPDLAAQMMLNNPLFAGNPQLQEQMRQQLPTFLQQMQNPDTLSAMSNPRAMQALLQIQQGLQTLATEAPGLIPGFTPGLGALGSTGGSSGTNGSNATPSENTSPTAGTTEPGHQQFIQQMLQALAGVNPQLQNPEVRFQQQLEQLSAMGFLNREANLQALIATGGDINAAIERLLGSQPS

Variant | effect of a mutation on the interaction
E148G | with no effect

Variants of: B6
Settings: with bag6_human BAG6, P46379
Chain of bag6_human BAG6, P46379 (P46379 whole entry): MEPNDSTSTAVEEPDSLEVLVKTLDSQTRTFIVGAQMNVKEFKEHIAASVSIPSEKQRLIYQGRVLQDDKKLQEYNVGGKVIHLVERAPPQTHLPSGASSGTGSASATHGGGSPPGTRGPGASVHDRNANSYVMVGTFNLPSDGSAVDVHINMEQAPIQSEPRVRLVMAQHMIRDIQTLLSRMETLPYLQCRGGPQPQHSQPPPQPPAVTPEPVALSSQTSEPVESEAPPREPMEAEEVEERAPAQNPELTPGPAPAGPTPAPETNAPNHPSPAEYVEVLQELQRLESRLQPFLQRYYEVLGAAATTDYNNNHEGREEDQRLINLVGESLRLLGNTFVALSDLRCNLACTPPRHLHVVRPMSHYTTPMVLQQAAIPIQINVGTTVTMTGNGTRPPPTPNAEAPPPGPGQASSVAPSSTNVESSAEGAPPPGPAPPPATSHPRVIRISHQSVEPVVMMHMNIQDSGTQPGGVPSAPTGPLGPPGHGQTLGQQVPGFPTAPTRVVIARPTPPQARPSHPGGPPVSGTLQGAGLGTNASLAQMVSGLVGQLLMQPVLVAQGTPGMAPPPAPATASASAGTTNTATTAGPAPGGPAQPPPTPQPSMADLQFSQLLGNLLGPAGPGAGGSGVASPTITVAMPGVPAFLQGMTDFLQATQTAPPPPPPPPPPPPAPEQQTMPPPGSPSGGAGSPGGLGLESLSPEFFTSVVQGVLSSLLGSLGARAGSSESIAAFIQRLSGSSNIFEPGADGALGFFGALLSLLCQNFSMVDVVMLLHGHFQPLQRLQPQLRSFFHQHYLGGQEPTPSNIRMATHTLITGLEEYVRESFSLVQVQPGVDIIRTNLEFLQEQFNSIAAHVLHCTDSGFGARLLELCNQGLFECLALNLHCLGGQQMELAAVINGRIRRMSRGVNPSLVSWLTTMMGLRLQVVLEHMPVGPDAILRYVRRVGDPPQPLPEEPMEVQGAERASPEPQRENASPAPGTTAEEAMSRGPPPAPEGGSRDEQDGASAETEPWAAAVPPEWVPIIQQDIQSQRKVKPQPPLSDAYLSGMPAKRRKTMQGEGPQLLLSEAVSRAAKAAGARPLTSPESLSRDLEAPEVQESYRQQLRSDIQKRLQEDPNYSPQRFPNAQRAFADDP

Variant | effect of a mutation on the interaction
E148G | with no effect
